According to US20260242478A1 (published 2026):
Where no end group is shown, it is not given here.

B1: Phage-3358 (Peptide-180 library peptide) (peptide)
peptide: VIIKCEPRWMCEGF
notes: tested as crude clonal phage supernatant
B2: Phage-3353 (Peptide-180 library peptide) (peptide)
peptide: SEHFCRPAWMCTGF
notes: as for B1
B3: Phage-3352 (Peptide-180 library peptide) (peptide)
peptide: VDHVCRPIWMCIGF
notes: as for B1
B4: Phage-3356 (Peptide-180 library peptide) (peptide)
peptide: LSWHCIPEWMCAGF
modifications: cysteine pairing not given here; also: fused to pIII of bacteriophage
notes: as for B1
B5: Phage-3355 (Peptide-180 library peptide) (peptide)
peptide: IGLLCAPKWMCEGF
modifications: cysteine pairing not given here; also: fused to pIII of bacteriophage
notes: as for B1
B6: Phage-3354 (Peptide-180 library peptide) (peptide)
peptide: GQMYCKPSWMCNGF
notes: as for B1
B7: Phage-3350 (Peptide-180 library peptide) (peptide)
peptide: GDIRCVPEWMCSGL
modifications: cysteine pairing not given here; also: fused to pIII of bacteriophage
notes: as for B1
B8: Phage-3351 (Peptide-180 library peptide) (peptide)
peptide: VRPMCEPVWMCMGF
notes: as for B1
B9: Phage-3357 (Peptide-180 library peptide) (peptide)
peptide: DTIQCKPAWMCVGF
notes: as for B1
B10: Phage-3348 (peptide)
peptide: YEQRCVPVWMCEGF
notes: not shown: fused to pIII of the bacteriophage
B11: Phage-3344 (peptide)
peptide: MERLCMPSWMCGGF
modifications: cysteine pairing not given here; also: fused to pIII of bacteriophage
notes: as for B10
B12: Phage-3343 (peptide)
peptide: TAPMCKPEWMCVAL
modifications: cysteine pairing not given here; also: fused to pIII of bacteriophage
notes: as for B10
B13: Phage-3345 (peptide)
peptide: GELKCIPPWMCEGF
modifications: cysteine pairing not given here; also: fused to pIII of bacteriophage
notes: as for B10
B14: Phage-3337 (peptide)
peptide: LEVLCKPTWMCVGF
modifications: cysteine pairing not given here; also: fused to pIII of bacteriophage
notes: as for B10
B15: Phage-3341 (peptide)
peptide: QYPVCKPAWMCEGF
modifications: cysteine pairing not given here; also: fused to pIII of bacteriophage
notes: as for B10
B16: Phage-3340 (peptide)
peptide: MHFHCKPAWMCQGL
modifications: cysteine pairing not given here; also: fused to pIII of bacteriophage
notes: as for B10
B17: Phage-3342 (peptide)
peptide: MEPVCKPKWMCQGF
modifications: cysteine pairing not given here; also: fused to pIII of bacteriophage
notes: as for B10
B18: Phage-3336 (peptide)
peptide: IVDICKPSWMCEGF
modifications: cysteine pairing not given here; also: fused to pIII of bacteriophage
notes: as for B10
B19: Phage-3346 (peptide)
peptide: SEYRCVPNWMCSGF
modifications: cysteine pairing not given here; also: fused to pIII of bacteriophage
notes: as for B10
B20: Phage-3339 (peptide)
peptide: TASMCKPPWMCLGF
modifications: cysteine pairing not given here; also: fused to pIII of bacteriophage
notes: as for B10
B21: Phage-3347 (peptide)
peptide: QSPMCKPDWMCLGF
modifications: cysteine pairing not given here; also: fused to pIII of bacteriophage
notes: as for B10
B22: Phage-3349 (peptide)
peptide: HIKECTPRWMCVGF
modifications: cysteine pairing not given here; also: fused to pIII of bacteriophage
notes: as for B10
B23: Phage-3338 (peptide)
peptide: VDALCRPSWMCIGF
modifications: cysteine pairing not given here; also: fused to pIII of bacteriophage
notes: as for B10

What follows are binders tested against T1, PSMA Fab (assay: clonal phage ELISA on biotinylated PSMA Fab captured on neutravidin, anti-M13 HRP detection, blocking buffer alone).
T1 construct: In the panning ELISA the PSMA Fab was biotinylated and captured on neutravidin coated plates; also called Anti-PSMA Fab; 006 PSMA Fab
Protocol: (§1) Clonal phage were harvested as crude supernatants and screened via standard ELISAs. […] Prior to the addition of clonal phage. wells were incubated with blocking buffer and PSMA antigen or blocking buffer alone. Without washing or aspirating, clonal phage supernatants were then added to the wells and incubated for a short time. Wells were then washed followed by detection of bound phage using a horse radish conjugated anti-M13 antibody.

Binder | Phage binding ELISA signal, Anti-PSMA Fab
WVIKCVPSWMCAGL [Phage-3321] | 1.85

The binders below were run against T2, PSMA Fab (006 PSMA Fab) (assay: phage ELISA: clonal phage supernatant on biotinylated PSMA Fab captured on neutravidin plate, blocking buffer alone; anti-M13 HRP detection;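 also: crude clonal phage supernatants added to wells preincubated with blocking buffer, incubated briefly, bound phage detected with a horseradish-conjugated anti-M13 antibody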).
T2 construct: also called Anti-PSMA Fab
Protocol: as §1

Binder | phage binding ELISA signal
B1 | 1.82
B2 | 1.82
B3 | 1.82
B4 | 1.82
B5 | 1.82
B6 | 1.82
B7 | 1.82
B8 | 1.82
B9 | 1.82

These binders were tested against T2, PSMA Fab (006 PSMA Fab) (assay: phage ELISA: clonal phage supernatant on biotinylated PSMA Fab captured on neutravidin plate, wells pre-incubated with PSMA antigen as competitor; anti-M13 HRP detection).
Protocol: as §1

Binder | phage binding ELISA signal
B1 | 0.068
B2 | 0.0801
B3 | 0.0934
B4 | 0.07
B5 | 0.0676
B6 | 0.0788
B7 | 0.0749
B8 | 0.0972
B9 | 0.102

Each binder was assayed against T3, PSMA Fab (biotinylated (site not stated)) (assay: clonal phage ELISA on captured PSMA Fab, wells pre-incubated with PSMA antigen as competitor; anti-M13 HRP detection).
T3 construct: Biotinylated PSMA Fab captured on neutravidin coated plates in the phage ELISA; also called Anti-PSMA Fab; 006 PSMA Fab

Binder | phage binding ELISA signal
QVVMCTPEWMCSGF [Phage-3326] | 0.0905
MEAMCRPAWMCAGF (cysteine pairing not given here; also: fused to pIII of bacteriophage) [Phage-3330] | 0.0662
VDRLCSPAWMCLGF [Phage-3329] | 0.0785
IMPKCVPSWMCTGL [Phage-3322] | 0.153
MYIHCVPEWMCRGF [Phage-3325] | 0.0941
AGSMCTPMWMCTGF [Phage-3323] | 0.0744
PELWCVPSWMCEGF [Phage-3332] | 0.0867
IDRMCKPVWMCEGF [Phage-3334] | 0.123
VNELCIPSWMCNGF [Phage-3331] | 0.0845
EGRYCVPEWMCQGF [Phage-3335] | 0.0864
VGPRCVPEWMCIGL [Phage-3324] | 0.0954
VAPICRPSWMCEWL [Phage-3328] | 0.0837
IEFLCKPMWMCNGF [Phage-3333] | 0.0658
IGVVCKPLWMCHGF [Phage-3327] | 0.0971

These binders were tested against T1, PSMA Fab (assay: clonal phage ELISA on biotinylated PSMA Fab captured on neutravidin, anti-M13 HRP detection, wells pre-incubated with saturating PSMA antigen as competitor).
Protocol: as §1

Binder | Phage binding ELISA signal, Anti-PSMA Fab with PSMA antigen
WVIKCVPSWMCAGL [Phage-3321] | 0.0907

Each binder was assayed against T3, PSMA Fab (assay: clonal phage ELISA on biotinylated PSMA Fab captured on neutravidin plates, blocking buffer alone; anti-M13 HRP detection).
Protocol: as §1

Binder | phage binding ELISA signal
QVVMCTPEWMCSGF [Phage-3326] | 1.85
MEAMCRPAWMCAGF (cysteine pairing not given here; also: fused to pIII of bacteriophage) [Phage-3330] | 1.84
VDRLCSPAWMCLGF [Phage-3329] | 1.84
IMPKCVPSWMCTGL [Phage-3322] | 1.85
MYIHCVPEWMCRGF [Phage-3325] | 1.85
AGSMCTPMWMCTGF [Phage-3323] | 1.85
PELWCVPSWMCEGF [Phage-3332] | 1.84
IDRMCKPVWMCEGF [Phage-3334] | 1.84
VNELCIPSWMCNGF [Phage-3331] | 1.84
EGRYCVPEWMCQGF [Phage-3335] | 1.84
VGPRCVPEWMCIGL [Phage-3324] | 1.85
VAPICRPSWMCEWL [Phage-3328] | 1.84
IEFLCKPMWMCNGF [Phage-3333] | 1.84
IGVVCKPLWMCHGF [Phage-3327] | 1.85

Each binder was assayed against T4, PSMA Fab (006 PSMA Fab) (biotinylated (site not stated)) (assay: clonal phage ELISA on captured PSMA Fab, wells pre-incubated with PSMA antigen as competitor).
T4 construct: also called Anti-PSMA Fab; anti-PSMA Fab

Binder | phage binding ELISA signal (Anti-PSMA Fab with PSMA)
B10 | 0.0675
B11 | 0.0822
B12 | 0.0952
B13 | 0.0808
B14 | 0.078
B15 | 0.0971
B16 | 0.0998
B17 | 0.07
B18 | 0.0649
B19 | 0.0791
B20 | 0.0684
B21 | 0.0728
B22 | 0.078
B23 | 0.0688

The binders below were run against T4, PSMA Fab (006 PSMA Fab) (assay: clonal phage ELISA on biotinylated PSMA Fab captured on neutravidin, anti-M13-HRP detection;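 also: crude clonal phage supernatants added to wells preincubated with PSMA antigen in blocking buffer or with blocking buffer alone, brief binding period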).
Protocol: as §1

Binder | Phage binding ELISA signal, Anti-PSMA Fab
B10 | 1.82
B11 | 1.83
B12 | 1.83
B13 | 1.83
B14 | 1.84
B15 | 1.83
B16 | 1.83
B17 | 1.83
B18 | 1.84
B19 | 1.83
B20 | 1.83
B21 | 1.83
B22 | 1.82
B23 | 1.84
